# Reference: paper PMC7264293, “Multi-site-mediated entwining of the linear WIR-motif around WIPI β-propellers for autophagy” (Nature Communications, 2020)
# Assays:
# Assay in all cases: ITC; WIPI3 proteins in the sample cell, GB1-tagged ATG2A fragments in the syringe; 25 °C; 50 mM Tris-HCl pH 8.0, 100 mM NaCl, 1 mM EDTA, 1 mM DTT; model of one binding site
# Details in all cases: both partners purified
# [1] = target: T1, WIPI3 (full-length, wild-type) (human, UniProt Q5MNZ6 1-344)
# T1 construct: human WIPI3, full length; also called wild-type WIPI3; full-length WIPI3; source: E. coli BL21(DE3), purified (Ni2+-Sepharose, size-exclusion chromatography)
# T1 sequence (Q5MNZ6 whole entry): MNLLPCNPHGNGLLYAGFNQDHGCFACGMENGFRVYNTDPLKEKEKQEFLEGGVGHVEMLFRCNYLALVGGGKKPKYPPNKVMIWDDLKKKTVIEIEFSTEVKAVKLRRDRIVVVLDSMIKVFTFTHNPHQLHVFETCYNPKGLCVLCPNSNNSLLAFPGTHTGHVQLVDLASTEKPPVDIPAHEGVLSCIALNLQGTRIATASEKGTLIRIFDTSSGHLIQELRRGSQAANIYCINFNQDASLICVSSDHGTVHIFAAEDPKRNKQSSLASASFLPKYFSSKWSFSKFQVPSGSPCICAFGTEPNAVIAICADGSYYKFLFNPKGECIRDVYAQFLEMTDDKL
# WIPI3-Δloop = target: T2, WIPI3-Δloop (human, UniProt Q5MNZ6 1-344, Blade 2 B-C loop (75-80) deleted | Blade 6 C-D loop (264-281) deleted)
# T2 construct: human WIPI3 with deletions of the Blade 2 B-C loop (75-80) and the Blade 6 C-D loop (264-281); also called loop-deletion mutant of WIPI3; source: E. coli BL21(DE3), purified (Ni2+-Sepharose, size-exclusion chromatography)
# T2 sequence (Q5MNZ6 other isoform, or with tags, fused parts or gaps with the stated changes): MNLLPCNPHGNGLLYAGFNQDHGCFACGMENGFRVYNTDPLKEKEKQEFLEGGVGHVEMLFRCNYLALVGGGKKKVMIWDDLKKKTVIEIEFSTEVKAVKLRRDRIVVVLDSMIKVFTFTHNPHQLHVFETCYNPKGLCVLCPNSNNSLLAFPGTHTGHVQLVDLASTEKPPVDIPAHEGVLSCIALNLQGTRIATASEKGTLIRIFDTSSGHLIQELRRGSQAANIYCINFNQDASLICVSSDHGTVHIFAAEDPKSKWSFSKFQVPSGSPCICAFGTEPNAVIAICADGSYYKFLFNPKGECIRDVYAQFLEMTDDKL
# Hsv2 = Hsv2 (yeast, UniProt P50079 1-448)
# Sequence of Hsv2 (P50079 whole entry): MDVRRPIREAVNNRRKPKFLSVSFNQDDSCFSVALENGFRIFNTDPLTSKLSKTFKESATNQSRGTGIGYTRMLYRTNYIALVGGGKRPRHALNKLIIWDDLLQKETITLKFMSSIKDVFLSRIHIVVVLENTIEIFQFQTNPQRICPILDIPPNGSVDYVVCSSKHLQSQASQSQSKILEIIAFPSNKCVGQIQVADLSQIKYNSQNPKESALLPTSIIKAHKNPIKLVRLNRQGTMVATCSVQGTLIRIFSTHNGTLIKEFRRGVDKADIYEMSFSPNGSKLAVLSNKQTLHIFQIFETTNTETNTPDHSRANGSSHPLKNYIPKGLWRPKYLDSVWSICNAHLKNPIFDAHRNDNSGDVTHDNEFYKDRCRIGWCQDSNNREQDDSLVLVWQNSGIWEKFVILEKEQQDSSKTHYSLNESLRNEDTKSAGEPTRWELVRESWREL
Binder,Kd [1] [µM],Kd (WIPI3-Δloop) [µM],binding result (WIPI3-Δloop),other results
"PRDGEPVVTQLHPGPIVVRDGYFSRPIGSTD (peptide, UniProt Q2TAZ0 1374-1404, looked up, human ATG2A residues 1374-1404; In the crystal (PDB 6KLR) the same stretch stood fused to the N-terminus of WIPI3-Δloop without the GB1 tag; source: E. coli BL21(DE3), purified (Ni2+-Sepharose, size-exclusion chromatography), tag not cleaved) [GB1-tagged ATG2A short fragment (1374-1404), the WIR-peptide]",8.7 ± 0.1,6.4 ± 0.7,,stoichiometry N (WIPI3-Δloop): 1; Kd (Hsv2): 21.5 ± 2 µM
"PRDGEPVVQQLHPGPIVVRDGYFSRPIGSTD (peptide, UniProt Q2TAZ0 1374-1404, looked up, human ATG2A residues 1374-1404 with T1382Q; source: E. coli BL21(DE3), purified (Ni2+-Sepharose, size-exclusion chromatography), tag not cleaved) [GB1-tagged WIR-peptide T1382Q]",,,binds,
"PRDGEPQVTQLHPGPIVVRDGYFSRPIGSTD (peptide, UniProt Q2TAZ0 1374-1404, looked up, human ATG2A residues 1374-1404 with V1380Q; source: E. coli BL21(DE3), purified (Ni2+-Sepharose, size-exclusion chromatography), tag not cleaved) [GB1-tagged WIR-peptide V1380Q]",,,binds,
"PRDGEPAVTQLHPGPIVVRDGYFSRPIGSTD (peptide, UniProt Q2TAZ0 1374-1404, looked up, human ATG2A residues 1374-1404 with V1380A; source: E. coli BL21(DE3), purified (Ni2+-Sepharose, size-exclusion chromatography), tag not cleaved) [GB1-tagged WIR-peptide V1380A]",,,binds,
"PRDGEPVVAQLHPGPIVVRDGYFSRPIGSTD (peptide, UniProt Q2TAZ0 1374-1404, looked up, human ATG2A residues 1374-1404 with T1382A; source: E. coli BL21(DE3), purified (Ni2+-Sepharose, size-exclusion chromatography), tag not cleaved) [GB1-tagged WIR-peptide T1382A]",,,binds,
"DSDEFCILDAPGLGIPPRDGEPVVTQLHPGPIVVRDGYFSRPIGSTD (domain or fragment, human, UniProt Q2TAZ0 1358-1404, looked up, human ATG2A residues 1358-1404; source: E. coli BL21(DE3), purified (Ni2+-Sepharose, size-exclusion chromatography), tag not cleaved) [GB1-tagged ATG2A long fragment (1358-1404)]",8.6 ± 0.1,6.3 ± 0.2,,
